US20090163411A1 (BOLDER BIOTECHNOLOGY, published 2009)

Molecular target: Recombinant Human Vascular Endothelial Growth Factor (rhVEGF) (human, UniProt P15692-4 27-191, limits assumed)
Assay: cell-based or functional assay

Recombinant Human Vascular Endothelial Growth Factor (rhVEGF), sequence (P15692 other isoform, or with tags, fused parts or gaps limits assumed): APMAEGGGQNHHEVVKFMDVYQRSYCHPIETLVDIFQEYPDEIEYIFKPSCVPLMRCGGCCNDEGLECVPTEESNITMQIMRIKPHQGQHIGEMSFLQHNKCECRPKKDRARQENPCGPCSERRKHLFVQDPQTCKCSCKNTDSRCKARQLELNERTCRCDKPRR

| Binder | Ave Ec50's (ng/ml); inhibition of VEGF-stimulated HUVEC proliferation, BrdU Cell Proliferation assay [ng/mL] |
| --- | --- |
| Wild type sFlt-1(fl) (receptor) SKLKDPELSLKGTQHIMQAGQTLHLQCRGEAAHKWSLPEMVSKESERLSITKSACGRNGKQFCSTLTLNTAQANHTGFYSCKYLAVPTSKKKETESAIYIFISDTGRPFVEMYSEIPEIIHMTEGRELVIPCRVTSPNITVTLKKFPLDTLIPDGKRIIWDSRKGFIISNATYKEIGLLTCEATVNGHLYKTNYLTHRQTNTIIDVQISTPRPVKLLRGHTLVLNCTATTPLNTRVQMTWSYPDEKNKRASVRRRIDQSNSHANIFYSVLTIDKMQNKDKGLYTCRVRSGPSFKSVNTSVHIYDKAFITVKHRKQQVLETVAGKRSYRLSMKVKAFPSPEVVWLKDGLPATEKSARYLTRGYSLIIKDVTEEDAGNYTILLSIKQSNVFKNLTATLIVNVKPQIYEKAVSSFPDPALYPLGSRQILTCTAYGIPQPTIKWFWHPCNHNHSEARCDFCSNNEESFILDADSNMGNRIESITQRMAIIEGKNKMASTLVVADSRISGIYICIASNKVGTVGRNISFYITDVPNGFHVNLEKMPTEGEDLKLSCTVNKFLYRDVTWILLRTVNNRTMHYSISKQKMAITKEHSITLNLTIMNVSLQDSGTYACRARNVYTGEEILQKKEITIR | 76 |
| 20 kDa-Cys-Flt-1(3) N164C (receptor, 20 kDa maleimide-PEG on Cys 164) SKLKDPELSLKGTQHIMQAGQTLHLQCRGEAAHKWSLPEMVSKESERLSITKSACGRNGKQFCSTLTLNTAQANHTGFYSCKYLAVPTSKKKETESAIYIFISDTGRPFVEMYSEIPEIIHMTEGRELVIPCRVTSPCITVTLKKFPLDTLIPDGKRIIWDSRKGFIISNATYKEIGLLTCEATVNGHLYKTNYLTHRQTNTIIDVQISTPRPVKLLRGHTLVLNCTATTPLNTRVQMTWSYPDEKNKRASVRRRIDQSNSHANIFYSVLTIDKMQNKDKGLYTCRVRSGPSFKSVNTSVHIYDKAFITVKH | 75 |
| sFlt-1(3) H338C (receptor) SKLKDPELSLKGTQHIMQAGQTLHLQCRGEAAHKWSLPEMVSKESERLSITKSACGRNGKQFCSTLTLNTAQANHTGFYSCKYLAVPTSKKKETESAIYIFISDTGRPFVEMYSEIPEIIHMTEGRELVIPCRVTSPNITVTLKKFPLDTLIPDGKRIIWDSRKGFIISNATYKEIGLLTCEATVNGHLYKTNYLTHRQTNTIIDVQISTPRPVKLLRGHTLVLNCTATTPLNTRVQMTWSYPDEKNKRASVRRRIDQSNSHANIFYSVLTIDKMQNKDKGLYTCRVRSGPSFKSVNTSVHIYDKAFITVKC | 55 |
| 20 kDa-Cys-Flt-1(3) H338C (receptor, 20 kDa maleimide-PEG on Cys 338) SKLKDPELSLKGTQHIMQAGQTLHLQCRGEAAHKWSLPEMVSKESERLSITKSACGRNGKQFCSTLTLNTAQANHTGFYSCKYLAVPTSKKKETESAIYIFISDTGRPFVEMYSEIPEIIHMTEGRELVIPCRVTSPNITVTLKKFPLDTLIPDGKRIIWDSRKGFIISNATYKEIGLLTCEATVNGHLYKTNYLTHRQTNTIIDVQISTPRPVKLLRGHTLVLNCTATTPLNTRVQMTWSYPDEKNKRASVRRRIDQSNSHANIFYSVLTIDKMQNKDKGLYTCRVRSGPSFKSVNTSVHIYDKAFITVKC | 19 |
| sFlt-1(3) N196C (receptor) SKLKDPELSLKGTQHIMQAGQTLHLQCRGEAAHKWSLPEMVSKESERLSITKSACGRNGKQFCSTLTLNTAQANHTGFYSCKYLAVPTSKKKETESAIYIFISDTGRPFVEMYSEIPEIIHMTEGRELVIPCRVTSPNITVTLKKFPLDTLIPDGKRIIWDSRKGFIISCATYKEIGLLTCEATVNGHLYKTNYLTHRQTNTIIDVQISTPRPVKLLRGHTLVLNCTATTPLNTRVQMTWSYPDEKNKRASVRRRIDQSNSHANIFYSVLTIDKMQNKDKGLYTCRVRSGPSFKSVNTSVHIYDKAFITVKH | 88 |
| Wild type sFlt-1(3) (receptor) SKLKDPELSLKGTQHIMQAGQTLHLQCRGEAAHKWSLPEMVSKESERLSITKSACGRNGKQFCSTLTLNTAQANHTGFYSCKYLAVPTSKKKETESAIYIFISDTGRPFVEMYSEIPEIIHMTEGRELVIPCRVTSPNITVTLKKFPLDTLIPDGKRIIWDSRKGFIISNATYKEIGLLTCEATVNGHLYKTNYLTHRQTNTIIDVQISTPRPVKLLRGHTLVLNCTATTPLNTRVQMTWSYPDEKNKRASVRRRIDQSNSHANIFYSVLTIDKMQNKDKGLYTCRVRSGPSFKSVNTSVHIYDKAFITVKH | 36 |
| 20 kDa-Cys-Flt-1(3) D31C (receptor, 20 kDa maleimide-PEG on Cys 31) SKLKCPELSLKGTQHIMQAGQTLHLQCRGEAAHKWSLPEMVSKESERLSITKSACGRNGKQFCSTLTLNTAQANHTGFYSCKYLAVPTSKKKETESAIYIFISDTGRPFVEMYSEIPEIIHMTEGRELVIPCRVTSPNITVTLKKFPLDTLIPDGKRIIWDSRKGFIISNATYKEIGLLTCEATVNGHLYKTNYLTHRQTNTIIDVQISTPRPVKLLRGHTLVLNCTATTPLNTRVQMTWSYPDEKNKRASVRRRIDQSNSHANIFYSVLTIDKMQNKDKGLYTCRVRSGPSFKSVNTSVHIYDKAFITVKH | 80 |
| 20 kDa-Cys-Flt-1(3) N196C (receptor, 20 kDa maleimide-PEG on Cys 196) SKLKDPELSLKGTQHIMQAGQTLHLQCRGEAAHKWSLPEMVSKESERLSITKSACGRNGKQFCSTLTLNTAQANHTGFYSCKYLAVPTSKKKETESAIYIFISDTGRPFVEMYSEIPEIIHMTEGRELVIPCRVTSPNITVTLKKFPLDTLIPDGKRIIWDSRKGFIISCATYKEIGLLTCEATVNGHLYKTNYLTHRQTNTIIDVQISTPRPVKLLRGHTLVLNCTATTPLNTRVQMTWSYPDEKNKRASVRRRIDQSNSHANIFYSVLTIDKMQNKDKGLYTCRVRSGPSFKSVNTSVHIYDKAFITVKH | 59 |
| 20 kDa-Cys-Flt-1(3) N323C (receptor, 20 kDa maleimide-PEG on Cys 323) SKLKDPELSLKGTQHIMQAGQTLHLQCRGEAAHKWSLPEMVSKESERLSITKSACGRNGKQFCSTLTLNTAQANHTGFYSCKYLAVPTSKKKETESAIYIFISDTGRPFVEMYSEIPEIIHMTEGRELVIPCRVTSPNITVTLKKFPLDTLIPDGKRIIWDSRKGFIISNATYKEIGLLTCEATVNGHLYKTNYLTHRQTNTIIDVQISTPRPVKLLRGHTLVLNCTATTPLNTRVQMTWSYPDEKNKRASVRRRIDQSNSHANIFYSVLTIDKMQNKDKGLYTCRVRSGPSFKSVCTSVHIYDKAFITVKH | 40 |
| sFlt-1(3) N323C (receptor) SKLKDPELSLKGTQHIMQAGQTLHLQCRGEAAHKWSLPEMVSKESERLSITKSACGRNGKQFCSTLTLNTAQANHTGFYSCKYLAVPTSKKKETESAIYIFISDTGRPFVEMYSEIPEIIHMTEGRELVIPCRVTSPNITVTLKKFPLDTLIPDGKRIIWDSRKGFIISNATYKEIGLLTCEATVNGHLYKTNYLTHRQTNTIIDVQISTPRPVKLLRGHTLVLNCTATTPLNTRVQMTWSYPDEKNKRASVRRRIDQSNSHANIFYSVLTIDKMQNKDKGLYTCRVRSGPSFKSVCTSVHIYDKAFITVKH | 32 |
| 20 kDa-Cys-Flt-1(3) N100C (receptor, 20 kDa maleimide-PEG on Cys 100) SKLKDPELSLKGTQHIMQAGQTLHLQCRGEAAHKWSLPEMVSKESERLSITKSACGRNGKQFCSTLTLNTAQACHTGFYSCKYLAVPTSKKKETESAIYIFISDTGRPFVEMYSEIPEIIHMTEGRELVIPCRVTSPNITVTLKKFPLDTLIPDGKRIIWDSRKGFIISNATYKEIGLLTCEATVNGHLYKTNYLTHRQTNTIIDVQISTPRPVKLLRGHTLVLNCTATTPLNTRVQMTWSYPDEKNKRASVRRRIDQSNSHANIFYSVLTIDKMQNKDKGLYTCRVRSGPSFKSVNTSVHIYDKAFITVKH | 66 |
| sFlt-1(3) D31C (receptor) SKLKCPELSLKGTQHIMQAGQTLHLQCRGEAAHKWSLPEMVSKESERLSITKSACGRNGKQFCSTLTLNTAQANHTGFYSCKYLAVPTSKKKETESAIYIFISDTGRPFVEMYSEIPEIIHMTEGRELVIPCRVTSPNITVTLKKFPLDTLIPDGKRIIWDSRKGFIISNATYKEIGLLTCEATVNGHLYKTNYLTHRQTNTIIDVQISTPRPVKLLRGHTLVLNCTATTPLNTRVQMTWSYPDEKNKRASVRRRIDQSNSHANIFYSVLTIDKMQNKDKGLYTCRVRSGPSFKSVNTSVHIYDKAFITVKH | 60 |
| sFlt-1(3) N100C (receptor) SKLKDPELSLKGTQHIMQAGQTLHLQCRGEAAHKWSLPEMVSKESERLSITKSACGRNGKQFCSTLTLNTAQACHTGFYSCKYLAVPTSKKKETESAIYIFISDTGRPFVEMYSEIPEIIHMTEGRELVIPCRVTSPNITVTLKKFPLDTLIPDGKRIIWDSRKGFIISNATYKEIGLLTCEATVNGHLYKTNYLTHRQTNTIIDVQISTPRPVKLLRGHTLVLNCTATTPLNTRVQMTWSYPDEKNKRASVRRRIDQSNSHANIFYSVLTIDKMQNKDKGLYTCRVRSGPSFKSVNTSVHIYDKAFITVKH | 53 |
| sFlt-1(3) G26C (receptor) CSKLKDPELSLKGTQHIMQAGQTLHLQCRGEAAHKWSLPEMVSKESERLSITKSACGRNGKQFCSTLTLNTAQANHTGFYSCKYLAVPTSKKKETESAIYIFISDTGRPFVEMYSEIPEIIHMTEGRELVIPCRVTSPNITVTLKKFPLDTLIPDGKRIIWDSRKGFIISNATYKEIGLLTCEATVNGHLYKTNYLTHRQTNTIIDVQISTPRPVKLLRGHTLVLNCTATTPLNTRVQMTWSYPDEKNKRASVRRRIDQSNSHANIFYSVLTIDKMQNKDKGLYTCRVRSGPSFKSVNTSVHIYDKAFITVKH | 43 |
| 20 kDa-Cys-Flt-1(3) G26C (receptor, 20 kDa maleimide-PEG on Cys 26) CSKLKDPELSLKGTQHIMQAGQTLHLQCRGEAAHKWSLPEMVSKESERLSITKSACGRNGKQFCSTLTLNTAQANHTGFYSCKYLAVPTSKKKETESAIYIFISDTGRPFVEMYSEIPEIIHMTEGRELVIPCRVTSPNITVTLKKFPLDTLIPDGKRIIWDSRKGFIISNATYKEIGLLTCEATVNGHLYKTNYLTHRQTNTIIDVQISTPRPVKLLRGHTLVLNCTATTPLNTRVQMTWSYPDEKNKRASVRRRIDQSNSHANIFYSVLTIDKMQNKDKGLYTCRVRSGPSFKSVNTSVHIYDKAFITVKH | 54 |
